Read-outs that look alike come from different tables or passages of the source.
Assays:
[1] = target: T1, human CD123 (full-length, on cells) (human, UniProt P26951 19-378); assay: flow cytometry, Molm-13 cells expressing CD123; Median RL1-H
T1 construct: also called CD123-FL; interleukin-3 receptor alpha chain
Experimental: (§1) Binding of sdAbs to human CD123 was assessed by flow cytometry. […] HEK 293 cells were transiently transfected with a plasmid encoding full-length CD123 (UniProt Accession No. P26951-1; mature form, SEQ ID NO: 1) and used as the positive cell line in FIGS. 2A to 2M, and untransfected HEK 293 cells were used as CD123-negative cells. In FIG. 2N, Molm-13 cells, which express CD123, were used as the positive cell line. Each cell type was plated at 30,000 cells/well in FACS buffer (PBS 1% BSA, 0.1% NaN₃ pH 7.4) on a 96-well round-bottom plate. The sdAbs were diluted in FACS buffer in a 3-fold, 11 point serial dilution. The sdAb dilutions were added to the plated cells, and assay plates were incubated for 30 minutes at 4° C. After washing twice in 150 μL of FACS buffer, cells in each well were resuspended in 100 μL of 1:2000 Alexa Fluor 647-conjugated Anti-Human IgG secondary diluted in FACS buffer and incubated at 4° C. for 30 minutes. The cells were washed twice more, then bound antibody was detected by flow cytometry.
(§2) Flow cytometric analysis was performed on an Intellicyte iQue Plus and fluorescence was plotted as median fluorescence intensity. The apparent affinity (Kd, nM) was determined using one site binding non-linear regression in PRISM graph software.

[2] = target: T1, human CD123 (full-length, on cells); assay: flow cytometry on Molm-13 cells, which express CD123; apparent Kd, one-site fit; apparent Kd by flow cytometry on CD123-expressing cells; the places shown do not name the cell line for this sdAb
Experimental: as §1, §2

[3] = target: T1, human CD123 (full-length, on cells); assay: flow cytometry, HEK 293 cells transfected with full-length CD123 (CD123-FL); Median RL-1H
Experimental: as §1, §2
Target sequence in this assay (P26951 19-378): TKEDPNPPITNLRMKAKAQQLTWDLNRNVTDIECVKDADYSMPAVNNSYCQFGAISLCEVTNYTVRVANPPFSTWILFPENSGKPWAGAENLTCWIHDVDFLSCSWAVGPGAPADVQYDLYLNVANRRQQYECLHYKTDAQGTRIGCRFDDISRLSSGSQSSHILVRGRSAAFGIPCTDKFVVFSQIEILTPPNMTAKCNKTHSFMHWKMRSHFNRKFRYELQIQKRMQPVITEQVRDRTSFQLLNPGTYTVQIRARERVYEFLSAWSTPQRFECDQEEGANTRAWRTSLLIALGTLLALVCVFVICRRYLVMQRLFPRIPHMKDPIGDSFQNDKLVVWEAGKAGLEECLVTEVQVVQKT

[4] = target: T1, human CD123 (full-length, on cells); assay: flow cytometry on HEK 293 cells transfected with full-length CD123; apparent Kd, one-site fit
Experimental: as §1, §2
Target sequence in this assay (P26951 19-378): as above

CD123-his [5] = target: T2, CD123-his; assay: BLI, CD123-his on Ni-NTA sensors preloaded with hz1B11v28, second sdAb 100 nM
T2 construct: also called histidine tagged human CD123; His-tagged CD123 ECD
T2 extracellular domain with C-terminal His tag: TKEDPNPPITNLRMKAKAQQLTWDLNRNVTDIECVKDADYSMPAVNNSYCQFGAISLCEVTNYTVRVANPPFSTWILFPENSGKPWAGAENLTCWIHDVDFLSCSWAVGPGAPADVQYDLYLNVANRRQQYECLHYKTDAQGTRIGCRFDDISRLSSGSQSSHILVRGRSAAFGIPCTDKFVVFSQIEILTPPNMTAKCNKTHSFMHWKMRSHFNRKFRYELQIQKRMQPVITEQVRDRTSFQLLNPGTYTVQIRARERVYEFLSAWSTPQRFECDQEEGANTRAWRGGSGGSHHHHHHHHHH
Experimental: (§3) The epitopes of single domain antibodies (sdAbs) that comprise VHH domains that bind CD123 were compared using Bio-Layer Interferometry. 5 ug/mL of histidine tagged human CD123 was immobilized on Nickel-nitrilotriacetic acid (Ni-NTA) coated capture sensors. 100 nM of one sdAb was then loaded onto the CD123 antigen and allowed to come to equilibrium. The sensors were then transferred into 100 nM of a second sdAb.

CD123-his [6] = target: T2, CD123-his; assay: BLI, CD123-his on Ni-NTA sensors preloaded with hzA5v2, second sdAb 100 nM
Experimental: as §3

[7] = target: T1, human CD123 (full-length, on cells); assay: flow cytometry blocking assay, sdAb titrated on CD123-expressing HEK-293 cells with a fixed amount of IL-3-mFc
Experimental: (§4) Certain CD123-binding sdAbs were tested for the ability to block CD123 binding to IL-3 by titrating the sdAb onto CD123 expressing HEK-293 cells in the presence of a fixed amount of recombinant IL-3-mFc. Bound IL-3 was detected by flow cytometry using fluorophore conjugated anti-mouse IgG specific secondary antibody.

[8] = target: T1, human CD123 (full-length, on cells); assay: as above; remark: listed apart in the source
Experimental: as §4

B1: hz1F5v6-IgG1 (Fc fusion)
chain: EVQLVESGGGEVQPGGSLRLSCAASGRAINMYAMGWFRQAPGKEREFVAAINWNAAYTQYAESVKGRFTISRDNAKNTLYLQMSSLRAEDTAVYYCSADADYNTYVSPNKRVSYWGQGTLVTVKPDKTHTCPPCPAPGGPSVFLFPPKPKDTLMISRTPEVTCVVVDVSHEDPEVKFNWYVDGVEVHNAKTKPREEQYNSTYRVVSVLTVLHQDWLNGKEYKCKVSNKALPAPIEKTISKAKGQPREPQVYTLPPSRDELTKNQVSLTCLVKGFYPSDIAVEWESNGQPENNYKTTPPVLDSDGSFFLYSKLTVDKSRWQQGNVFSCSVMHEALHNHYTQKSLSLSPGK
EC50 (read off the curve) [1]: ~1 nM
Kd [2]: 1.36 nM

B2: hz4F2v3-IgG1 (Fc fusion)
chain: EVQLVESGGGEVQPGGSLRLSCAASGRTVSNYPMAWFRQAPGKEREFVAHISWSGITSILNSVNDRFTISRDNAKNTIYLQMSSLRAEDTAVYYCAAAQRPTAGPKGPFGYWGQGTLVTVDKTHTCPPCPAPGGPSVFLFPPKPKDTLMISRTPEVTCVVVDVSHEDPEVKFNWYVDGVEVHNAKTKPREEQYNSTYRVVSVLTVLHQDWLNGKEYKCKVSNKALPAPIEKTISKAKGQPREPQVYTLPPSRDELTKNQVSLTCLVKGFYPSDIAVEWESNGQPENNYKTTPPVLDSDGSFFLYSKLTVDKSRWQQGNVFSCSVMHEALHNHYTQKSLSLSPGK
notes: also called hz4F2v3 sdAb
EC50 (read off the curve) [3]: 2 to 3 nM
Kd [4]: 2.4 nM
binding result (CD123-his [5]): binds

B3: C5-IgG1 (Fc fusion)
chain: QVTLRESGGGLVQAGGSLRLSCKGSGRAINTYAMGWFRQAPGKEREFVAAISWNGGHTRYADSVQGRFAISRDNADNTMYLQMNSLKPEDTAVYHCAAYSDYHRIATMEADADSWGQGTQVTVDKTHTCPPCPAPGGPSVFLFPPKPKDTLMISRTPEVTCVVVDVSHEDPEVKFNWYVDGVEVHNAKTKPREEQYNSTYRVVSVLTVLHQDWLNGKEYKCKVSNKALPAPIEKTISKAKGQPREPQVYTLPPSRDELTKNQVSLTCLVKGFYPSDIAVEWESNGQPENNYKTTPPVLDSDGSFFLYSKLTVDKSRWQQGNVFSCSVMHEALHNHYTQKSLSLSPGK
notes: also called sdAb C5
binding result (CD123-his [6]): binds
EC50 (read off the curve) [3]: ~1 nM
IC50 (read off the curve) [7]: ~2 nM
IC50 (read off the curve) [8]: ~0.7 nM
